As a reminder, the Kd is the equilibrium constant for the complex coming apart.

We go through one molecule from patent US20260199576A1 (KYOTO UNIVERSITY, published 2026).

The target in assay [1] is T1, Biotinylated human integrin αvβ6 (ACROBiosystems, product number IT6-H82E4) (human, UniProt P06756 31-992; P18564 22-707, biotinylated (Avi tag at the C-terminus) ; Biotin on the Avi tag at the C-terminus of the αv chain; the tag is not in the letters.).
T1 construct: Bought heterodimer; also called biotinylated integrin αvβ6; not shown: basic tail on the β6 chain
The assay is described as follows: BLI (Octet RED96), biotinylated integrin αvβ6 on biosensor, antibody in solution. As to the method: Next, the binding affinity of the obtained anti-integrin αvβ6 monoclonal antibodies derived from UC or PSC patients was determined. The KD value was measured by biolayer interferometry using Octet RED96 (Sartorius). A 100 nM solution of the antibody, and serially diluted solutions of biotinylated integrin αvβ6 protein in the range of 200 to 6.25 nM were prepared using a buffer containing 20 mM Tris, 150 mM NaCl, 1 mM CaCl₂, 1 mM MgCl₂, 0.1% human serum albumin (014-27604; Fujifilm Wako Pure Chemical Industries, Ltd.) and 0.02% Tween 20 (1610781; Bio-Rad), and added to a 96-well plate (Greiner; 655209) at 200 μL/well. The biotinylated integrin αvβ6 was allowed to bind for 5 minutes to a biosensor (18-5136; Sartorius) soaked in the buffer. After washing of the biosensor, the biosensor was immersed in each antibody solution for 5 minutes (binding reaction). Then, the sensor was immersed in the buffer solution for 1 minute (dissociation reaction). The binding dissociation constant (KD value) between “integrin αvβ6-each monoclonal antibody” was determined using the analysis software (Octet BLI Analysis) attached to the device.
(In general: BLI is a label-free optical method that tracks binding on a fibre tip over time.)

Assay [2] concerns the target Integrin αvβ3 (ACRO Biosystems, IT3-H52E3) (UniProt P06756 31-992; P05106 27-718). The assay is described as follows: adsorption test: UC antibody 1 150 ng, His-tagged integrin 5 or 25 µg/mL and anti-His-tag magnetic agarose; remaining antibody measured by ELISA, adsorption rate. The protocol: (§1) The concentration of anti-integrin αvβ6 antibodies contained in the recovered solution was measured by ELISA. A microtiter plate was coated with 100 μL/well of 2 μg/mL integrin αvβ6 overnight at 4° C., followed by washing and blocking. After washing, the recovered reaction solution was diluted 10-fold and added at 100 µL/well to the plate, and the plate was incubated at room temperature for 60 minutes. After washing, an HRP-labeled anti-human IgG antibody (50,000-fold dilution; ab6759; Abcam) was added at 100 μL/well to the plate, and the plate was incubated at room temperature for 60 minutes. After washing, the plate was incubated with 3,3′,5,5′-tetramethylbenzidine for 7 minutes, and the absorbance density (OD value) at 450 nm was measured to detect human IgG bound to integrin αvβ6 on the solid phase.
(§2) Anti-histidine tag antibody-labeled magnetic agarose (MBL, D291-10) in the amount of 10 μL (5 μg of anti-his tag antibody), 150 ng of the monoclonal autoantibody derived from an ulcerative colitis patient prepared in Example 2 (UC antibody 1 shown in Table 1), and 5 μg/mL or 25 μg/mL of any of integrins as mentioned below were mixed and reacted by inversion mixing in a total of 500 μL of solution at 4° C. for 12 hours. The solution after the reaction was recovered. As a control, a mixture to which no integrin was added (a mixture of the above-mentioned agarose and autoantibody only) was used to perform the similar reaction. [0157] Integrin αvβ1 (ACRO Biosystems, IT1-H82W6) [0158] Integrin αvβ3 (ACRO Biosystems, IT3-H52E3) [0159] Integrin αvβ5 (ACRO Biosystems, IT5-H52W5) [0160] Integrin αvβ6 (ACRO Biosystems, IT6-H52E1) [0161] Integrin αvβ8 (ACRO Biosystems, IT8-H52W4)
(§3) In the same manner as described in Example 7, the concentration of anti-integrin αvβ6 antibody contained in the recovered solution was determined, and the adsorption rate of anti-integrin αvβ6 antibody in the antibody adsorption reaction was calculated.
(In general: In an ELISA, binding on a coated surface is turned into a signal by an enzyme label.)

For assay [3], the target named is Integrin αvβ1 (ACRO Biosystems, IT1-H82W6) (UniProt P06756 31-992; P05556 21-728). The description is as above. The protocol: as §1, §2, §3
Assay [4] has as its target Integrin αvβ8 (ACRO Biosystems, IT8-H52W4) (UniProt P06756 31-992; P26012 43-684). Described as above. The protocol: as §1, §2, §3
Assay [5] deals with Integrin αvβ5 (ACRO Biosystems, IT5-H52W5) (UniProt P06756 31-992; P18084 24-719). Described as above. As to the method:
as §1, §2, §3

Assay [6] has as its target T2, human integrin αvβ6 (ACROBiosystems, product number IT6-H52E1) (human, UniProt P06756 31-992; P18564 22-707).
T2 construct: also called histidine-tagged integrin αvβ6; histidine-tagged extracellular domain protein of integrin αvβ6; not shown: linker and basic tail on the β6 chain
The assay is described as follows: blocking ELISA: integrin αvβ6 coated, antibody added, then fibronectin 2 µg/mL; bound fibronectin detected, inhibition effect (%). The protocol: Furthermore, a competitive assay with fibronectin for binding to integrin αvβ6 was performed to confirm the function of the obtained monoclonal antibodies. Briefly, a 96-well microtiter plate was coated with 150 μL/well of 2 μg/mL human integrin αvβ6 (ACROBiosystems, Cat. No. IT6-H52E1) overnight at 4° C., then blocked and incubated with 120 μL of monoclonal antibodies (0.0001-10 μg/mL) for 60 min at room temperature. After washing, the plate was incubated with 100 μL of 2 μg/mL fibronectin (FC010; MilliporeSigma, Burlington, MA) for 60 minutes at room temperature. After washing, an anti-fibronectin antibody (1:5000 dilution; ab2413; Abcam) was added to the plate, and the plate was incubated for 60 min at room temperature. […] After washing, the plate was incubated with 3,3′,5,5′-tetramethylbenzidine for 10 minutes, and the absorbance at 450 nm was measured to detect fibronectin bound to integrin αvβ6 on the solid phase. […] To calculate the binding inhibition rate, blank wells coated with integrin αvβ6 were incubated with fibronectin in the absence of antibody, and the optical density (OD) at 450 nm was measured in the same manner as above. The binding inhibition rate (%) was calculated according to the following formula. […]

T1 sequence (P06756 31-992 limits assumed, chain 1 of 2): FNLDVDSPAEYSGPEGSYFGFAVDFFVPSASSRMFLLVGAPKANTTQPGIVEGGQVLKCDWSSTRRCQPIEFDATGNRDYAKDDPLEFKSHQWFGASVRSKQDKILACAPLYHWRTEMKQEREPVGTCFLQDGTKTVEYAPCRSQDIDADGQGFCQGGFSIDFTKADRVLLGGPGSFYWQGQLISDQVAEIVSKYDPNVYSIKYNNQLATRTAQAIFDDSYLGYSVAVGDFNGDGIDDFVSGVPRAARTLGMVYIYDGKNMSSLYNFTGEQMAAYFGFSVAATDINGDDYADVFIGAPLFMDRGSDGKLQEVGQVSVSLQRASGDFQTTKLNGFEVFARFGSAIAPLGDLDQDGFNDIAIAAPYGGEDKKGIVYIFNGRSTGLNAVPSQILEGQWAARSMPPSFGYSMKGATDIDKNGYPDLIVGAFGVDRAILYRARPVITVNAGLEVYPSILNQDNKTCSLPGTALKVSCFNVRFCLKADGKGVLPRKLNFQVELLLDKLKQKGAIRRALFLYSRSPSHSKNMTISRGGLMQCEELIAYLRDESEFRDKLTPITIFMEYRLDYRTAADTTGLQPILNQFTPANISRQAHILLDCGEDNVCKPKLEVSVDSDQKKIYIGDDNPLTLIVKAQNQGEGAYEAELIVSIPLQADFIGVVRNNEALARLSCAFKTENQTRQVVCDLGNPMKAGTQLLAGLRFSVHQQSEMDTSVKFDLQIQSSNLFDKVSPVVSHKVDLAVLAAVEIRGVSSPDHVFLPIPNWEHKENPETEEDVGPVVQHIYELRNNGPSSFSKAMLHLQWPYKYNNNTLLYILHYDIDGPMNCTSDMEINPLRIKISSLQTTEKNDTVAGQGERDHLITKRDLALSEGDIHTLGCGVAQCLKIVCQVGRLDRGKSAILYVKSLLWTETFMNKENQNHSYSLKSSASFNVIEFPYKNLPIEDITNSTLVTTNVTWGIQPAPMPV
T1 sequence (P18564 22-707 limits assumed, chain 2 of 2): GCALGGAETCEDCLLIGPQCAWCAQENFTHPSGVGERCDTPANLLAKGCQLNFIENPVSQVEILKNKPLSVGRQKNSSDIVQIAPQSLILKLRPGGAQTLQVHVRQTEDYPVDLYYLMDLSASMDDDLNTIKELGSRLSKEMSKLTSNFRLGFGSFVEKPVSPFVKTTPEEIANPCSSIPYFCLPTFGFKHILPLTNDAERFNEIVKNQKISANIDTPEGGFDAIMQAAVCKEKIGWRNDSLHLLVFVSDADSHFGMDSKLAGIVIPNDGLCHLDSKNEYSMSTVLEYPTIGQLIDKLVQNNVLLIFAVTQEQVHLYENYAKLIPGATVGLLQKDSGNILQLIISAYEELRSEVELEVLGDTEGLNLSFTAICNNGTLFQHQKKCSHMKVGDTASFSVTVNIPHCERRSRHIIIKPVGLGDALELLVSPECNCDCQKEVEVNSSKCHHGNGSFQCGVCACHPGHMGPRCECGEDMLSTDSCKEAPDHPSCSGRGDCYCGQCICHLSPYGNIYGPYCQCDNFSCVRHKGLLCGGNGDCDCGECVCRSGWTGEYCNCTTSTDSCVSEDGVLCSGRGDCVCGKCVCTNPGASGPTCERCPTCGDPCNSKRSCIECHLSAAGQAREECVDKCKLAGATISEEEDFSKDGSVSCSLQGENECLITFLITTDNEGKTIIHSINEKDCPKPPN
Integrin αvβ1 (ACRO Biosystems, IT1-H82W6), sequence (P06756 31-992, chain 1 of 2): as the sequence (P06756 31-992 limits assumed, chain 1 of 2) above
Integrin αvβ1 (ACRO Biosystems, IT1-H82W6), sequence (P05556 21-728, chain 2 of 2): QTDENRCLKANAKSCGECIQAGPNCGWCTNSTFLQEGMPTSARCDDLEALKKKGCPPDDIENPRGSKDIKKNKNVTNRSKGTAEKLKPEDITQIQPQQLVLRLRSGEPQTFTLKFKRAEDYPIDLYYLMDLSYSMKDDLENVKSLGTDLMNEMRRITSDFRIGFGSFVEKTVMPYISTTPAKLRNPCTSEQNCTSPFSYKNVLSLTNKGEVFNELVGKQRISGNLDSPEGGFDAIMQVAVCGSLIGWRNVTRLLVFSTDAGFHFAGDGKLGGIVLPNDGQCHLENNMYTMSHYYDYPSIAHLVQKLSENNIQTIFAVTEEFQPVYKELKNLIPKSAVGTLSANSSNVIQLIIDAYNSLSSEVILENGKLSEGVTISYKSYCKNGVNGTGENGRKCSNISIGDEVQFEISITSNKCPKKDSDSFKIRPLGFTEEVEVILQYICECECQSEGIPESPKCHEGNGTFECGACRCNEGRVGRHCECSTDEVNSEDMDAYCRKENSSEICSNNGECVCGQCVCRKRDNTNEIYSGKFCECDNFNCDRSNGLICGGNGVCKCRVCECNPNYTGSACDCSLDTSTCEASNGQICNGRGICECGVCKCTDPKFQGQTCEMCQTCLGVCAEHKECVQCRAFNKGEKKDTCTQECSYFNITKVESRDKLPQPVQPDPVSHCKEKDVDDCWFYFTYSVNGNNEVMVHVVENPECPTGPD
Integrin αvβ8 (ACRO Biosystems, IT8-H52W4), sequence (P06756 31-992, chain 1 of 2): as the sequence (P06756 31-992 limits assumed, chain 1 of 2) above
Integrin αvβ8 (ACRO Biosystems, IT8-H52W4), sequence (P26012 43-684, chain 2 of 2): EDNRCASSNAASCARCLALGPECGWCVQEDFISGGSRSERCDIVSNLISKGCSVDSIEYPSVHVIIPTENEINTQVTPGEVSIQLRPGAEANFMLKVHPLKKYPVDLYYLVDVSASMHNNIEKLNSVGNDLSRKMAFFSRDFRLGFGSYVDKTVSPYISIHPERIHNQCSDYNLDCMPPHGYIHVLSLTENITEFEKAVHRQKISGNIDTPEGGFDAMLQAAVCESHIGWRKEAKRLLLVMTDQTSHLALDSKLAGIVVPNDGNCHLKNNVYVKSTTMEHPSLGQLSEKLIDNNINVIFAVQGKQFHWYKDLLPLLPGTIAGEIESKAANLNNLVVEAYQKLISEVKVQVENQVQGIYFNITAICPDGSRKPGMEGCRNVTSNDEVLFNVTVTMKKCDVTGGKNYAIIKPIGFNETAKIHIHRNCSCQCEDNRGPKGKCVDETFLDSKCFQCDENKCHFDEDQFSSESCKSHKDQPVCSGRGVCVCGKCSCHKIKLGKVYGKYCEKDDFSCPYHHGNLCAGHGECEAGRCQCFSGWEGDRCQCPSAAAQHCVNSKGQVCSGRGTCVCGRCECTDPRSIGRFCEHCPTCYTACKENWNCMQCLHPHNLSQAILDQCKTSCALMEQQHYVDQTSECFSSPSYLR
T2 sequence (P06756 31-992 limits assumed, chain 1 of 2): as the sequence (P06756 31-992 limits assumed, chain 1 of 2) above
T2 sequence (P18564 22-707 limits assumed, chain 2 of 2): as the sequence (P18564 22-707 limits assumed, chain 2 of 2) above
Integrin αvβ3 (ACRO Biosystems, IT3-H52E3), sequence (P06756 31-992, chain 1 of 2): as the sequence (P06756 31-992 limits assumed, chain 1 of 2) above
Integrin αvβ3 (ACRO Biosystems, IT3-H52E3), sequence (P05106 27-718, chain 2 of 2): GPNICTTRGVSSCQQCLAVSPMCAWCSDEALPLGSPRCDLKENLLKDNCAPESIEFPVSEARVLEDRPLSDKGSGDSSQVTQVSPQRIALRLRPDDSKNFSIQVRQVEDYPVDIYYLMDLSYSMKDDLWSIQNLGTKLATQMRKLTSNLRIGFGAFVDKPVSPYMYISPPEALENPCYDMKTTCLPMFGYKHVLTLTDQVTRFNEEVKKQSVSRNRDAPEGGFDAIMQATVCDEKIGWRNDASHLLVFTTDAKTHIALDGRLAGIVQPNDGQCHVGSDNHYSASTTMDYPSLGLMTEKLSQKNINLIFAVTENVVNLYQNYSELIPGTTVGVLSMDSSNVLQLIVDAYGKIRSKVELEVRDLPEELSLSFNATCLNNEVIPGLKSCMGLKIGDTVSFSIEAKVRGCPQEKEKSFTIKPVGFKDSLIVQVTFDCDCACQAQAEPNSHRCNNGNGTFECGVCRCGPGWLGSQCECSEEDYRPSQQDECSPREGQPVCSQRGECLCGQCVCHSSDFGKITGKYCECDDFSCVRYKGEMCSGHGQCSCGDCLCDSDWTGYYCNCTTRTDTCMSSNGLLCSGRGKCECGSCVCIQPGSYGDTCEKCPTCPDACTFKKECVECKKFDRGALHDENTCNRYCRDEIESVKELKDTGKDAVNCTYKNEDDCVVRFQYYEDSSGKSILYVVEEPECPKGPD
Integrin αvβ5 (ACRO Biosystems, IT5-H52W5), sequence (P06756 31-992, chain 1 of 2): as the sequence (P06756 31-992 limits assumed, chain 1 of 2) above
Integrin αvβ5 (ACRO Biosystems, IT5-H52W5), sequence (P18084 24-719, chain 2 of 2): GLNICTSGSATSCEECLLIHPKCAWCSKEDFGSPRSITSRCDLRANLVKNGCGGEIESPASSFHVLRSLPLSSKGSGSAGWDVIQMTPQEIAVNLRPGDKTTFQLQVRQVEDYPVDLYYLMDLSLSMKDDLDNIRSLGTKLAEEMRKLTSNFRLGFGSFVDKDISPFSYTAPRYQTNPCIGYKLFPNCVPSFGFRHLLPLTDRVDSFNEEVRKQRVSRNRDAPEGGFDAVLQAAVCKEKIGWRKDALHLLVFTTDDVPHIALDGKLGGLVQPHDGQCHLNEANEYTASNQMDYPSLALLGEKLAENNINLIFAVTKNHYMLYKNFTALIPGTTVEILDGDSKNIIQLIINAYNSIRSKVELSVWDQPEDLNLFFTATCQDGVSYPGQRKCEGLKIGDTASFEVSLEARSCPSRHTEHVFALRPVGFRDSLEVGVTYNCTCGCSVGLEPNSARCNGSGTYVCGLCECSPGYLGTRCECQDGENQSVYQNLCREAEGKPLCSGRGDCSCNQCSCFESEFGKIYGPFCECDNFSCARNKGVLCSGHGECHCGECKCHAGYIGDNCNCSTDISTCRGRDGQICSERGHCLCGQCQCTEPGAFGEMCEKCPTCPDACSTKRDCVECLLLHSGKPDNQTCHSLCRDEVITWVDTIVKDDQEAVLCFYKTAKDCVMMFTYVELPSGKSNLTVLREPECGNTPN

B1: UC antibody 1 (antibody, V domains shown)
VH: QVQLVESGGGVVQPGRSLRLSCAASGFTFSSYGMHWVRQAPGKGLEWVAFISYDGINKYYADSVKGRFTISRDNSKDTLYLQMNSLRAEDTAVYYCAKVIPRIRGSGDKAGIKDYYYYGMDVWGQGTTVTVSS
VL: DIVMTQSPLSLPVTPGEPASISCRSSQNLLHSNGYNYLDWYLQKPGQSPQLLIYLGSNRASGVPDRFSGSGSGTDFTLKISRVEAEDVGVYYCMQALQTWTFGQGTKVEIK
notes: Human monoclonal IgG from a UC patient, expressed in CHO cells; also called monoclonal autoantibody derived from an ulcerative colitis patient; anti-integrin αvβ6 antibody (UC antibody 1)
B1 displayed a Kd in assay [1] of 4.54 nM. Besides, the binding result in assay [2], in assay [3], in assay [4] and in assay [5] was “no binding (tested: 25 µg/mL)” throughout. For the same molecule, the “IC50 (read off the curve)” value in assay [6] is approximately 0.2 µg/mL.
